The nature of the data set: amyloid nucleation score (Sup35N fusion, yeast selection) (log enrichment); library NNK1; higher = more nucleation; inactive = no reads after selection. The gist of the method:
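DiMSum was used to calculate nucleation scores as log enrichment of output over input reads, centred on the mode score of non-aggregating sequences. Sequences with fewer than 100 input reads were not scored. Input and output came from Illumina sequencing of plasmid inserts in psi-negative yeast expressing peptides of 20 random codons fused to Sup35N, induced 24 hours with 100 μM copper sulfate and then grown 7 days at 30°C on medium lacking adenine and uracil.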

± gives the uncertainty stated by the source.

Here are results for 140 substances from the supplement of paper PMC12042874.

DNGLGRRWARAKYKECRKAR showed an amyloid nucleation score of 0.141 ± 0.27. The value for DVVLDYSRQTYKDPASRMYA was 1.1 ± 0.71. As for WEIAE, the amyloid nucleation score was determined as 0.939 ± 0.19. With LNLGGSF, the amyloid nucleation score result is “inactive”. For PVLRAWYGRLFCRYSWLWQC, the amyloid nucleation score came to 0.274 ± 0.46. With SGGCMDSKLSAVG, the amyloid nucleation score amounted to 0.894 ± 0.51. Next, RYHPMG: -0.074 ± 0.93; WAILNDVMYHMWLNTFRTNV: -0.295 ± 0.64. For RMYYAFVCGGEDMESEFPCY, the amyloid nucleation score is -0.037 ± 1.4.

ALYSDRDI gave an amyloid nucleation score of 0.939 ± 0.29.

Substance PCDSICALFALSKHQVGGGW returned an amyloid nucleation score of 0.324 ± 0.55. Substance YGNLYCQTFLVWCRNIFLLI yielded an amyloid nucleation score of 0.255 ± 0.41.

In the case of SSPPDNTKSKATLKALE, the amyloid nucleation score is -1.5 ± 2.4. With ASDLGATKHNLHFIACIFSL, the amyloid nucleation score was determined as 4.77 ± 0.074. The value for DLQCVAKVHESVGLGHHVHE was 0.659 ± 0.5; that for PTFNSAQTRSISYIKTDYLE was “inactive”. In turn, CKSGDLSECCRIWHRWA gave an amyloid nucleation score of 0.048 ± 0.27. Next, FFVPSYLPFMMFHVLSCRDF: -0.417 ± 0.45.

The substance IAYVQFAPRKY gave an amyloid nucleation score of 0.776 ± 0.36. In turn, YSINTCCQLVIIDPGSSYEM showed an amyloid nucleation score of 6.634 ± 0.047. CSSVAS yielded an amyloid nucleation score of 0.113 ± 0.31.

Turning to LNTWVGVGGWPE, the amyloid nucleation score was -0.135 ± 0.78.

Consider SVTALKLDSSLQKSRDLVGG, for which the amyloid nucleation score is -0.233 ± 1.1. The value for SYHRSSYYGLVNRMAFLVF was 2.94 ± 0.11; that for YERVRPGAIHFRIETI was 0.146 ± 0.53. Consider FAIFKSTIPINSVVWPIIMH, for which the amyloid nucleation score turned out to be 0.87 ± 0.3. The value for ACLSNGKWKYPLGYESSLRR was -0.968 ± 1.1. The value for LYVDYQCIGSFVTIYKYITP was 0.889 ± 0.27. The value for GRMGVSSWAGSQRVLIGENL was 1.47 ± 0.3. Consider KYYMHLSSRDRRGAAWHLLF, for which the amyloid nucleation score was -0.075 ± 0.29. The value for IRLGHIQVFVSGRFENRLIF was 0.257 ± 0.56; that for SFSYLIFTTVLLVWW was 0.549 ± 0.34. FQSECSCIPKAWSVFMGTAG gave an amyloid nucleation score of -0.476 ± 0.58. Consider CVNFFGCHCVHN, for which the amyloid nucleation score was determined as 7.735 ± 0.069. The value for RIVILLKVIYFQFYRLQYIT was 0.03 ± 0.32; that for FCRHLGLSS was 1.25 ± 0.44. On to GMDTGNITAQSMAGLPRRAS, for which the amyloid nucleation score is -0.299 ± 0.49. Next, RIWDCRYCKG: -0.184 ± 0.29; LMGDLYGSLRMCLVGSRWLL: 0.082 ± 1.2; FLIYVQYTKYSLWAPVFIHR: “inactive”. The value for RDAIYYKICLAQPRSF was -0.465 ± 0.38. The value for FGNRFEYRFERTN was -0.482 ± 1.1. As for VNKGFHFLILTTIINVDYGG, the amyloid nucleation score came to 4.64 ± 0.07. The value for NWEKVNLLTLRNTFRCSSRA was 0.751 ± 0.27; that for NWDGLYVYEYSRFVVASCRN was 1.2 ± 0.2.

Consider FNRNNMKYQYFLKRIYMNW, for which the amyloid nucleation score was -0.338 ± 1.4.

PDSLFPLCFLRLWLISSIVR showed an amyloid nucleation score of 1.49 ± 0.84. In the case of DRVCILEQLDRSRGATVCAR, the amyloid nucleation score was 1.24 ± 0.76. Next, ELEPCDPGF: “inactive”; KLEGSARSGTTSRGSFSECV: 0.254 ± 0.38. Turning to LCEHKSRLVEDAKGGET, the amyloid nucleation score was -0.043 ± 0.47. The substance GWSNNCAFNLQFGISKKN had an amyloid nucleation score of 1.54 ± 0.47. RVGDYGKHRW displayed an amyloid nucleation score of 1.31 ± 0.14.

On to YSGCRTPDTVSVVTSTHAEY, for which the amyloid nucleation score entry was “inactive”. As to SNAIDRAHPYRFGFCVNDVQ, the amyloid nucleation score was -0.279 ± 0.47. Next, GDSLTLTLFRIIYIGFRTDY: -1.03 ± 0.44. As for YNLGQVFSWINDTTSMMCGK, the amyloid nucleation score came to 0.567 ± 0.32. The value for HHGSCFEGLFCSETFCLAIM was 6.495 ± 0.055; that for DIFSA was 1.49 ± 0.43; that for NCRMGR was -0.016 ± 1.7. Next, CNYSSSTVGYRSDMRVCSDT: 0.405 ± 0.61. Substance SNQQLRWCECVYNGATGKVK registered an amyloid nucleation score of 1.35 ± 0.47. The value for LTSQSLVVNFLLYCTG was 1.1 ± 0.85; that for LYNVSSLGSANKSFLGRSS was 1.39 ± 0.76. Substance DLLDLIQISDSLKILNALPE registered an amyloid nucleation score of 0.845 ± 0.18.

In turn, SWNMSFVWFHGCITWRQKGF registered an amyloid nucleation score of 0.408 ± 0.4.

Turning to DNDYDLDPVGIRVHLFNQ, the amyloid nucleation score result was “inactive”. The value for NFCVSVVFP was 1.84 ± 0.54; that for MNLQYHILN was -0.345 ± 1.7. In turn, WQKSWR gave an amyloid nucleation score of 5.24 ± 0.074. CISLTCVVYGSML: the amyloid nucleation score amounted to 7.213 ± 0.048. Consider GNCGET, for which the amyloid nucleation score is 0.311 ± 0.41.

In turn, QTSSFFCSV returned an amyloid nucleation score of -2.12 ± 2.4. The value for NVDWSPKRNINMGGWEKWLV was 0.261 ± 0.92. The value for MSVCAIYRVRVFQCCFTCLH was -0.953 ± 0.68.

The substance IECVS had an amyloid nucleation score of -0.251 ± 0.68. The substance HVFIIQRMSWGVLRLLVSCR came in with an amyloid nucleation score of -0.548 ± 0.52.

Turning to DKLSNVFLFLTDGCLNFNSF, the amyloid nucleation score stood at 3.1 ± 0.11.

As for VVLGCDVMLYRISFPFMIHS, the amyloid nucleation score was -0.036 ± 0.47.

For the substance TINDKMITRFSLLCPAVSMI, the amyloid nucleation score was 1.21 ± 0.84. Regarding MLRSNVLYLIHRALCLWCVT, the amyloid nucleation score was found to be 2.42 ± 0.17.

Consider HMLWSFLLITWYGMICRKGG, for which the amyloid nucleation score was -0.15 ± 0.39. Substance LWLIPRWYDLTEMECFDMYN showed an amyloid nucleation score of 0.477 ± 0.45. For the substance MVWVKGEDCFVDQACLRGAV, the amyloid nucleation score is 1.03 ± 0.72. WSSYGCAAEMDALVCHGDAF returned an amyloid nucleation score of 1.47 ± 0.88. Next, TGFTSLGGYLKVFNIICWIH: 3.39 ± 0.097; SITVKKES: 0.254 ± 0.62. With SEDVLIPAGRCPL, the amyloid nucleation score came out at 0.845 ± 0.7.

Turning to VMRVFILSMFWIVSECNRSY, the amyloid nucleation score was 2.38 ± 0.23. Next, LSCIVW: -0.366 ± 0.57. SWLWSCSCLRVAMLTT: the amyloid nucleation score entry is “inactive”. With YPDNMWYLCMLCRGWMCETR, the amyloid nucleation score is -0.644 ± 0.62.

As to YYIMYYAGSFIRGEMVHRLT, the amyloid nucleation score is -0.581 ± 0.32. For the substance FNRLSCFFSKSHPVQTGYNS, the amyloid nucleation score is -0.01 ± 0.51.

As to LLMLGLLSQH, the amyloid nucleation score worked out at 0.427 ± 0.28. KKVFFHKRVLSDARCKPVKS: the amyloid nucleation score was -0.567 ± 0.41. IRYKA: the amyloid nucleation score came to 4.49 ± 0.11. The value for KCIQGTGSLWD was -0.128 ± 0.3. The value for RKVGVGKYLSHFECANRIWL was 0.3 ± 0.33; that for YTHDIRSVGGLQESGLGVWV was -0.094 ± 1.1; that for FWISRYVLQKDWKGWICTEL was -0.338 ± 0.83. Next, TFLGGAPVGKIFTLIWLGRG: 0.52 ± 0.93. In turn, LCGDHLFWLDVGDAVGVFLA displayed an amyloid nucleation score of 0.176 ± 0.4. On to AVQYNKVKERTLSQPWTHHV, for which the amyloid nucleation score is -1.86 ± 1.7. The value for LLNYGLRFCLVTARSELTYM was 0.979 ± 0.62; that for FIMIDRPETLQPNLDGLKL was -0.524 ± 0.45; that for YMGPVV was -0.313 ± 0.33. With RLSGKFFICVGLKCVIWLRG, the amyloid nucleation score was -1.09 ± 0.54.

LMSEVRPAMLDSSVLRDCYD: the amyloid nucleation score entry was “inactive”.

Regarding IGVKTYYTLFIGSMYFNSKG, the amyloid nucleation score was found to be 3.22 ± 0.097. Next, ERHMYMSCWFTNY: 0.777 ± 0.21; ASSSGFSMGLCQMYNGTFMG: -1.21 ± 0.94. As to RWGAYVYGQSVSINGIRIVL, the amyloid nucleation score turned out to be 6.665 ± 0.045. The value for PVKNRYTHR was “inactive”; that for YLHWTQEDLRGNILGWSMWS was 2.32 ± 0.16; that for HPYSFWWSWAVKPLPGLRRI was 0.485 ± 0.73. Substance YSARMLIRLSLLGFLPVSAP had an amyloid nucleation score of 0.711 ± 0.55.

In turn, PCGEKD yielded an amyloid nucleation score of 0.559 ± 0.9. The value for RRGSNDDSYHRRQVDRKPMA was 0.166 ± 0.66. Next, CSNLQLAHKRRISNWSNLWC: -0.029 ± 0.98; VHRRRIRQSAWVRGAVSTFR: -0.011 ± 0.4. The value for SSSFPVMVYTHDAANCHRML was -0.763 ± 0.41; that for SAWWIGMMWCSSSSYLEIGG was -0.586 ± 0.39. The substance TNELCMYCLGHLGY came in with an amyloid nucleation score of 0.694 ± 0.84.

Take PTCQGITWMPRQLWLMGGAD: the amyloid nucleation score came to 0.507 ± 0.6. Consider YVLIVNWIRSK, for which the amyloid nucleation score was 4.42 ± 0.075. In turn, ICELIWGGRRSNGINGSTSG displayed an amyloid nucleation score of 0.741 ± 0.23.

VEDENKDSVIKVEKLLPHNL returned an amyloid nucleation score of -0.342 ± 0.29. SLMKELKF: the amyloid nucleation score is -0.034 ± 0.73. In the case of APGWTVDTSPYSAGVCVVTP, the amyloid nucleation score was found to be 0.099 ± 0.4. The value for IIFELKGLPLKNGMRGLKPL was -0.579 ± 0.34; that for TKFKIAYTCYFNMFHRRLCI was -0.374 ± 0.38. Next, FFVLRLSLTFWSCKS: 1.3 ± 0.56; VKTNWLNWWLLNGLRASRCL: 0.062 ± 0.58. With PECQSGCMV, the amyloid nucleation score is -0.163 ± 0.41. Substance LDHGEFTKYFRLTRCVSTCC came in with an amyloid nucleation score of -0.339 ± 0.97.

The substance TLVYY registered an amyloid nucleation score of 0.296 ± 0.47. Next, AGYFCL: -0.449 ± 0.47; CVVWAEVRVR: -0.419 ± 0.79; WCQKYNFRCSVLDLTFSLLW: 6.71 ± 0.069.
